Here are results for 18 molecules from patent US20240092890A1 (JUNTENDO EDUCATIONAL FOUNDATION, published 2024).

A word on the Kd: it is the equilibrium constant for the complex coming apart.

Changes are numbered by the printed parent chain.

In assay [1] the target is T1, Ins 5 type mutant CALR protein on UT-7/TPO CALR Ins 5 cells (UniProt P27797 18-417).
T1 sequence (looked up): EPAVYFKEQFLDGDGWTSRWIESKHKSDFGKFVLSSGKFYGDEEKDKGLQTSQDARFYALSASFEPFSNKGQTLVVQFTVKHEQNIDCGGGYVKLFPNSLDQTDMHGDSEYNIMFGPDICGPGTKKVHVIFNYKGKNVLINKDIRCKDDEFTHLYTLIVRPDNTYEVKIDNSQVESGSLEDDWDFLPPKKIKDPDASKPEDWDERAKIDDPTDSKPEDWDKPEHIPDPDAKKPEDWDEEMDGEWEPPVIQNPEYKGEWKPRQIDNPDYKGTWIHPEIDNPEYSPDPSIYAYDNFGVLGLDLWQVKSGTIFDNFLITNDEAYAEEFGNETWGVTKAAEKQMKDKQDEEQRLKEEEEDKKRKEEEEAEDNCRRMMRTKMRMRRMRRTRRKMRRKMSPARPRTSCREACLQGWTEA
Description: cell-based or functional assay.

Assay [2] has as its target T2, protein having an Fc region and a His-tag added to the N-terminus of SEQ ID NO: 1.
T2 construct: also called mutant CALR protein (antigen of the BLItz measurement); not shown: Fc region and His-tag at the N-terminus
T2 chain: RRMMRTKMRMRRM
Description: BLItz biolayer interferometry, Fc/His-SEQ ID NO: 1 protein on the biosensor. An outline of the steps: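 The Fc/His-tagged protein was loaded at 0.1 mg/mL onto Anti-Penta-HIS or Protein A biosensors. Antibodies were run at 500, 100 and 50 nM by biolayer interferometry, and the dissociation constant was derived from these binding curves.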
In general terms: Biolayer interferometry detects binding as a change in optical thickness at a sensor tip.

In assay [3] the target is T1, Ins 5 type mutant CALR protein on …. Description: cell-based or functional assay. This is another data set of the same source.

B1: B3 chimeric antibody (antibody, human IgG1, kappa, L234A L235A)
heavy: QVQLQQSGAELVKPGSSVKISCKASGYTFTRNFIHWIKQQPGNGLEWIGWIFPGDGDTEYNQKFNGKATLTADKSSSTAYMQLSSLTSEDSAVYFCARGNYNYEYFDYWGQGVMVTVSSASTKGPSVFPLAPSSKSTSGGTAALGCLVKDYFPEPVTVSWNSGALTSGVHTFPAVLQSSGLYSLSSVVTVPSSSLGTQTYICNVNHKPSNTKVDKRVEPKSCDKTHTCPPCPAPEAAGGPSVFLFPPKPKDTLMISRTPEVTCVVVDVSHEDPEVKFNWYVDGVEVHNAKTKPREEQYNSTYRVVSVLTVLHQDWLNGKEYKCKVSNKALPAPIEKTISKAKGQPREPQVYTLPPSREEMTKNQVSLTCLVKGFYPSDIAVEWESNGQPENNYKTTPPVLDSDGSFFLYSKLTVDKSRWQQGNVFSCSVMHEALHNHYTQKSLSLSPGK
light: DIQMTQSPASLSASLGETVSIECLASEDIYSYLAWYQQKPGKSPQLLIFAANRLQDGVPSRFSGSGSGTQFSLKISGMQPEDEGDYFCLQGSKFPYTFGPGTKLELNRTVAAPSVFIFPPSDEQLKSGTASVVCLLNNFYPREAKVQWKVDNALQSGNSQESVTEQDSKDSTYSLSSTLTLSKADYEKHKVYACEVTHQGLSSPVTKSFNRGEC
notes: monospecific anti-mutant CALR antibody, no CD3 arm
For the molecule B1, the “EC50 of cytotoxic activity (calcein release, T-LAK effector cells)” value (from here on “EC50 … (calcein release, T-LAK effector cells)”) in assay [1] is greater than 10 nM. Besides, the Kd in assay [2] was less than 0.001 nM.

B2: Antibody 14 (bispecific antibody, human IgG1, kappa, L234A L235A)
heavy: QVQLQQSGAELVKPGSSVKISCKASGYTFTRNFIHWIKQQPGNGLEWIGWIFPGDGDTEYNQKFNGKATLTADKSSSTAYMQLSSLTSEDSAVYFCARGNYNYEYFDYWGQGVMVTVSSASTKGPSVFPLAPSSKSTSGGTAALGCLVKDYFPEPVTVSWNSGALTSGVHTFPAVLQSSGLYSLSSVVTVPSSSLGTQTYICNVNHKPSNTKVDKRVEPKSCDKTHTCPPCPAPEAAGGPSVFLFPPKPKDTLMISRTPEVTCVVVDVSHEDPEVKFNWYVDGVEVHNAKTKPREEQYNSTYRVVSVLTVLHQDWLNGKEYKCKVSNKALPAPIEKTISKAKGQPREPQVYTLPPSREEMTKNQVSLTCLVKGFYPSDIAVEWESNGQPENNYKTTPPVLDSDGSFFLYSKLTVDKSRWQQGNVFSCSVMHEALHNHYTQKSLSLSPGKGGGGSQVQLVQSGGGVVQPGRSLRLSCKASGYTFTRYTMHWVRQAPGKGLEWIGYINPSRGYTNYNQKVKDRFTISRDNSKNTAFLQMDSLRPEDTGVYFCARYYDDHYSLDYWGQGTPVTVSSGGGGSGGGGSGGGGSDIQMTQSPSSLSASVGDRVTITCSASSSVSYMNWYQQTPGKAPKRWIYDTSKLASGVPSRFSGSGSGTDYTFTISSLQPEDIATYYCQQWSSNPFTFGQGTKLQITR
light: B1 light
notes: B3 IgG with hOKT3 scFv fused to the heavy chain C-terminus
Take B2: in assay [1], the “EC50 … (calcein release, T-LAK effector cells)” value is 0.989 nM. In assay [2], this molecule showed a Kd of less than 0.001 nM.

B3: Antibody 13 (bispecific antibody, human IgG1, kappa, L234A L235A)
heavy 1: not shown
heavy 2: QVQLQQSGAELVKPGSSVKISCKASGYTFTRNFIHWIKQQPGNGLEWIGWIFPGDGDTEYNQKFNGKATLTADKSSSTAYMQLSSLTSEDSAVYFCARGNYNYEYFDYWGQGVMVTVSSASTKGPSVFPLAPSSKSTSGGTAALGCLVKDYFPEPVTVSWNSGALTSGVHTFPAVLQSSGLYSLSSVVTVPSSSLGTQTYICNVNHKPSNTKVDKRVEPKSCDKTHTCPPCPAPEAAGGPSVFLFPPKPKDTLMISRTPEVTCVVVDVSHEDPEVKFNWYVDGVEVHNAKTKPREEQYNSTYRVVSVLTVLHQDWLNGKEYKCKVSNKALPAPIEKTISKAKGQPREPQVCTLPPSREEMTKNQVSLSCAVKGFYPSDIAVEWESNGQPENNYKTTPPVLDSDGSFFLVSKLTVDKSRWQQGNVFSCSVMHEALHNHYTQKSLSLSPGKGGGGSQVQLVQSGGGVVQPGRSLRLSCKASGYTFTRYTMHWVRQAPGKGLEWIGYINPSRGYTNYNQKVKDRFTISRDNSKNTAFLQMDSLRPEDTGVYFCARYYDDHYSLDYWGQGTPVTVSSGGGGSGGGGSGGGGSDIQMTQSPSSLSASVGDRVTITCSASSSVSYMNWYQQTPGKAPKRWIYDTSKLASGVPSRFSGSGSGTDYTFTISSLQPEDIATYYCQQWSSNPFTFGQGTKLQITR
light: B1 light
notes: B3 IgG with knob-into-hole heavy chains, hOKT3 scFv fused to the C-terminus of one heavy chain
Turning to B3, the “EC50 … (calcein release, T-LAK effector cells)” value in assay [1] was 4.47 nM. This molecule returned a Kd in assay [2] of less than 0.001 nM.

B4: Antibody 15 (bispecific antibody, human IgG1, kappa, L234A L235A)
heavy: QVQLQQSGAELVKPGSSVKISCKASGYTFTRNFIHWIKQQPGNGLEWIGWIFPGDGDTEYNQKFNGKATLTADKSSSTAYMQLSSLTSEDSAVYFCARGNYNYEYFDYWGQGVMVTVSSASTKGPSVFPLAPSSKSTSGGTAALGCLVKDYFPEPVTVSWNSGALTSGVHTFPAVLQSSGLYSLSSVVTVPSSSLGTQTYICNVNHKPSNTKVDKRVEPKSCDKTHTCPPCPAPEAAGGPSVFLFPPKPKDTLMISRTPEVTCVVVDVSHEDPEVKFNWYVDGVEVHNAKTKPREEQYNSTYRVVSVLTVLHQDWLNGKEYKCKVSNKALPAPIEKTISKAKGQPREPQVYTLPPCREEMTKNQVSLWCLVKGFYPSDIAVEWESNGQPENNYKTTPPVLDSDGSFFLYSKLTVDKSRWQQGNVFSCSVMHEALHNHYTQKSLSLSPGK
light: B1 light
chain: QVQLVQSGGGVVQPGRSLRLSCKASGYTFTRYTMHWVRQAPGKGLEWIGYINPSRGYTNYNQKVKDRFTISRDNSKNTAFLQMDSLRPEDTGVYFCARYYDDHYSLDYWGQGTPVTVSSGGGGSGGGGSGGGGSDIQMTQSPSSLSASVGDRVTITCSASSSVSYMNWYQQTPGKAPKRWIYDTSKLASGVPSRFSGSGSGTDYTFTISSLQPEDIATYYCQQWSSNPFTFGQGTKLQITREPKSCDKTHTCPPCPAPEAAGGPSVFLFPPKPKDTLMISRTPEVTCVVVDVSHEDPEVKFNWYVDGVEVHNAKTKPREEQYNSTYRVVSVLTVLHQDWLNGKEYKCKVSNKALPAPIEKTISKAKGQPREPQVCTLPPSREEMTKNQVSLSCAVKGFYPSDIAVEWESNGQPENNYKTTPPVLDSDGSFFLVSKLTVDKSRWQQGNVFSCSVMHEALHNHYTQKSLSLSPGK
notes: B3 half IgG hetero-associated by knob-into-hole with hOKT3 scFv-Fc
Turning to B4, the “EC50 … (calcein release, T-LAK effector cells)” value in assay [1] was 1.29 nM. Besides, the dissociation constant (Kd) in assay [2] was determined as 6.68 nM.

B5: Antibody 86 (bispecific antibody)
chain 1: not shown
chain 2: DIQMTQSPSSLSASVGDRVTITCLASEDIYSYLAWYQQKPGKAPKLLIFAANRLQSGVPSRFSGSGSGTDFTLTISSLQPEDFATYYCLQGSKFPYTFGPGTKVDIKRTVAAPSVFIFPPSDEQLKSGTASVVCLLNNFYPREAKVQWKVDNALQSGNSQESVTEQDSKDSTYSLSSTLTLSKADYEKHKVYACEVTHQGLSSPVTKSFNRGEC
With B5, in assay [2], the Kd is less than 0.001 nM. In addition, in assay [3], the “EC50 of cytotoxic activity (pM)” value worked out at 58 pM.

B6: Antibody 106 (bispecific antibody)
chain 1: QVQLVQSGAEVKKPGSSVKVSCKASGYTFTRNFIHWIRQAPGQGLEWIGWIFPGDADTEYNQKFSGRATITADKSTSTAYMELSSLRSEDTAVYYCARGNYNYEYFDYWGQGTMVTVSSASTKGPSVFPLAPSSKSTSGGTAALGCLVKDYFPEPVTVSWNSGALTSGVHTFPAVLQSSGLYSLSSVVTVPSSSLGTQTYICNVNHKPSNTKVDKRVEPKSCGGGGSQVQLVQSGGGVVQPGRSLRLSCKASGYTFTRYTMHWVRQAPGKGLEWIGYINPSRGYTNYNQKVKDRFTISRDNSKNTAFLQMDSLRPEDTGVYFCARYYDDHYSLDYWGQGTPVTVSSGGGGSGGGGSGGGGSDIQMTQSPSSLSASVGDRVTITCSASSSVSYMNWYQQTPGKAPKRWIYDTSKLASGVPSRFSGSGSGTDYTFTISSLQPEDIATYYCQQWSSNPFTFGQGTKLQITRHHHHHH
chain 2: B5 chain 2 with S56D
In assay [2], B6 displayed a Kd of 4.99 nM. For the same molecule, the “EC50 of cytotoxic activity (pM)” value in assay [3] was 2560 pM.

B7: Antibody 91 (bispecific antibody)
chain 1: not shown
chain 2: B5 chain 2
The molecule B7 showed a Kd in assay [2] of less than 0.001 nM. The “EC50 of cytotoxic activity (pM)” value in assay [3] was 230 pM.

B8: Antibody 90 (bispecific antibody)
chain 1: not shown
chain 2: B5 chain 2
With B8, the Kd in assay [2] is less than 0.001 nM. In addition, the “EC50 of cytotoxic activity (pM)” value in assay [3] stood at 269 pM.

B9: Antibody 89 (bispecific antibody)
chain 1: not shown
chain 2: B5 chain 2
B9 showed a Kd in assay [2] of less than 0.001 nM. Moreover, the “EC50 of cytotoxic activity (pM)” value in assay [3] was 77 pM.

B10: Antibody 88 (bispecific antibody)
chain 1: not shown
chain 2: B5 chain 2
For the molecule B10, the Kd in assay [2] is less than 0.001 nM. Moreover, the “EC50 of cytotoxic activity (pM)” value in assay [3] came out at 28 pM.

B11: Antibody 92 (bispecific antibody)
chain 1: not shown
chain 2: B5 chain 2
Take B11: in assay [2], the Kd is less than 0.001 nM. Further, the “EC50 of cytotoxic activity (pM)” value in assay [3] worked out at 47 pM.

B12: Antibody 94 (bispecific antibody)
chain 1: not shown
chain 2: B5 chain 2 with S56D
As for B12, the dissociation constant (Kd) in assay [2] is less than 0.001 nM. For the same molecule, the “EC50 of cytotoxic activity (pM)” value in assay [3] is 32 pM.

B13: Antibody 101 (bispecific antibody, human IgG1, kappa, L234A L235A)
chain 1: not shown
chain 2: DIQMTQSPSFVSASVGDRVTITCLASEDIYSYLAWYQQKPGKAPKLLIFAANRLQDGVPSRFSGGGSGTGFTLTISSLQPEDFATYFCLQGSKFPYTFGQGTKLEINRTVAAPSVFIFPPSDEQLKSGTASVVCLLNNFYPREAKVQWKVDNALQSGNSQESVTEQDSKDSTYSLSSTLTLSKADYEKHKVYACEVTHQGLSSPVTKSFNRGECGGGGSGGGGSQVQLVQSGGGVVQPGRSLRLSCKASGYTFTRYTMHWVRQAPGKGLEWIGYINPSRGYTNYNQKVKDRFTISRDNSKNTAFLQMDSLRPEDTGVYFCARYYDDHYSLDYWGQGTPVTVSSGGGGSGGGGSGGGGSDIQMTQSPSSLSASVGDRVTITCSASSSVSYMNWYQQTPGKAPKRWIYDTSKLASGVPSRFSGSGSGTDYTFTISSLQPEDIATYYCQQWSSNPFTFGQGTKLQITR
B13 yielded a Kd in assay [2] of less than 0.001 nM. For the same molecule, in assay [3], the “EC50 of cytotoxic activity (pM)” value turned out to be 1660 pM.

B14: Antibody 103 (bispecific antibody, human IgG1, kappa, L234A L235A)
chain 1: not shown
chain 2: B13 chain 2 with F10S, V11L, D56S, G65S, G70D, F87Y, Q100P, L104V, E105D, N107K
In assay [2], B14 came in with a Kd of less than 0.001 nM. The “EC50 of cytotoxic activity (pM)” value in assay [3] is 399 pM.

B15: Antibody 104 (bispecific antibody, human IgG1, kappa, L234A L235A)
chain 1: not shown
chain 2: B13 chain 2 with F10S, V11L, D56S, G65S, G70D, F87Y, Q100P, L104V, E105D, N107K
On to B15, for which the Kd in assay [2] was less than 0.001 nM. Moreover, the “EC50 of cytotoxic activity (pM)” value in assay [3] amounted to 621 pM.

B16: Antibody 100 (bispecific antibody, human IgG1, kappa, L234A L235A)
chain 1: not shown
chain 2: B13 chain 2
On to B16, for which the Kd in assay [2] was less than 0.001 nM. Also, the “EC50 of cytotoxic activity (pM)” value in assay [3] is 1080 pM.

B17: Antibody 102 (bispecific antibody, human IgG1, kappa, L234A L235A)
chain 1: not shown
chain 2: B13 chain 2 with D56S
B17 came in with a Kd in assay [2] of less than 0.001 nM. Moreover, the “EC50 of cytotoxic activity (pM)” value in assay [3] stood at 850 pM.

B18: Antibody 9 (bispecific antibody)
chain: QVQLQQSGAELVKPGSSVKISCKASGYTFTRNFIHWIKQQPGNGLEWIGWIFPGDGDTEYNQKFNGKATLTADKSSSTAYMQLSSLTSEDSAVYFCARGNYNYEYFDYWGQGVMVTVSSGGGGSGGGGSGGGGSDIQMTQSPASLSASLGETVSIECLASEDIYSYLAWYQQKPGKSPQLLIFAANRLQDGVPSRFSGSGSGTQFSLKISGMQPEDEGDYFCLQGSKFPYTFGPGTKLELNGGGGSQVQLVQSGGGVVQPGRSLRLSCKASGYTFTRYTMHWVRQAPGKGLEWIGYINPSRGYTNYNQKVKDRFTISRDNSKNTAFLQMDSLRPEDTGVYFCARYYDDHYSLDYWGQGTPVTVSSGGGGSGGGGSGGGGSDIQMTQSPSSLSASVGDRVTITCSASSSVSYMNWYQQTPGKAPKRWIYDTSKLASGVPSRFSGSGSGTDYTFTISSLQPEDIATYYCQQWSSNPFTFGQGTKLQITRHHHHHH
notes: B3 VH-VL scFv and hOKT3 VH-VL scFv in one polypeptide, no Fc
Turning to B18, the “EC50 … (calcein release, T-LAK effector cells)” value in assay [1] was 1.53 nM. The molecule also showed a Kd in assay [2] of 6.55 nM.
